Numbering of substitutions follows the chain as printed.
B1: hMAK195-21-h10F7-B20.8 DVD-Ig (bispecific antibody, human IgG1, kappa, L234A L235A)
heavy: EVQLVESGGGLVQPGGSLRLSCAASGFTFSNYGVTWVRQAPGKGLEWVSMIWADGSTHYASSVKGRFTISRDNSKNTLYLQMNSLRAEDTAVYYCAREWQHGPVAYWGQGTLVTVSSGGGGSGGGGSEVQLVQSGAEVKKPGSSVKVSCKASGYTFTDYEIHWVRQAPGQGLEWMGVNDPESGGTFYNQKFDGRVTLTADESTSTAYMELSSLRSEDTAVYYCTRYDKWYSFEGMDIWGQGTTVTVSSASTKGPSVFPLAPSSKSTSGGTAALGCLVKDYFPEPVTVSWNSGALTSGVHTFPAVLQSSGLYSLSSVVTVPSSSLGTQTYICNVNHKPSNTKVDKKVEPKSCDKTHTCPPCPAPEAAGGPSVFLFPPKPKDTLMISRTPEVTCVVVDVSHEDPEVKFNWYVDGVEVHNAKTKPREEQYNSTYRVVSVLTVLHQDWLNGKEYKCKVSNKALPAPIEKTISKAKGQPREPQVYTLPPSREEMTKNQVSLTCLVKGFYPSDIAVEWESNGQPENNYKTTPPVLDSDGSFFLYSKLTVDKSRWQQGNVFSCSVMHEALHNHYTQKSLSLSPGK
light: DIQMTQSPSSLSASVGDRVTITCRASQLVSSAVAWYQQKPGKAPKLLIYWASARHTGVPSRFSGSGSGTDFTLTISSLQPEDFATYYCQQHYKTPFTFGQGTKLEIKRGGSGGGGSGDIQMTQSPSSLSASVGDRVTITCRASSGIISYIDWFQQKPGKAPKRLIYATFDLASGVPSRFSGSGSGTDYTLTISSLQPEDFATYYCRQVGSYPETFGQGTKLEIKRTVAAPSVFIFPPSDEQLKSGTASVVCLLNNFYPREAKVQWKVDNALQSGNSQESVTEQDSKDSTYSLSSTLTLSKADYEKHKVYACEVTHQGLSSPVTKSFNRGEC
notes: DVD-Ig; IgG1 234,235 mut, kappa; GS10 linkers; light chain shared with the M11 DVD-Ig; also called hMAK195-21-GS10-B20 DVD
B2: hMAK195-21-h10F7-B13.8 DVD-Ig (bispecific antibody, human IgG1, kappa, L234A L235A)
heavy: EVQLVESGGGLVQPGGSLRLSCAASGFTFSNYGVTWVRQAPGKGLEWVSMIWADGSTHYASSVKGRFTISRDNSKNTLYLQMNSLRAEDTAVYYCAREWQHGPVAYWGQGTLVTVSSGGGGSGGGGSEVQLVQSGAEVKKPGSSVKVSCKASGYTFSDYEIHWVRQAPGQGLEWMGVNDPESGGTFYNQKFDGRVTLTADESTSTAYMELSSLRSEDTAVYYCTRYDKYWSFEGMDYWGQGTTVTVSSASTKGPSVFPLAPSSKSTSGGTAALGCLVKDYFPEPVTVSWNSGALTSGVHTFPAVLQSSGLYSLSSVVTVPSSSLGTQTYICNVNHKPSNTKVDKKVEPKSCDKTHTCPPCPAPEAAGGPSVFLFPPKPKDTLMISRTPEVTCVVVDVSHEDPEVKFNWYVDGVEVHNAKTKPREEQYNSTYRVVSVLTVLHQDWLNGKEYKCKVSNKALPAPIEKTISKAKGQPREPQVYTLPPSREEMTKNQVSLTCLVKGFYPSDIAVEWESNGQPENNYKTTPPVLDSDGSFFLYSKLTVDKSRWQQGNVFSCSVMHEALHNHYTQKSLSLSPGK
light: B1 light
notes: DVD-Ig; IgG1 234,235 mut, kappa; GS10 linkers; light chain shared with the M11 DVD-Ig; also called hMAK195-21-GS10-B13 DVD
B3: hMAK195-24-h10F7-M10.8 DVD-Ig (bispecific antibody, human IgG1, kappa, L234A L235A)
heavy: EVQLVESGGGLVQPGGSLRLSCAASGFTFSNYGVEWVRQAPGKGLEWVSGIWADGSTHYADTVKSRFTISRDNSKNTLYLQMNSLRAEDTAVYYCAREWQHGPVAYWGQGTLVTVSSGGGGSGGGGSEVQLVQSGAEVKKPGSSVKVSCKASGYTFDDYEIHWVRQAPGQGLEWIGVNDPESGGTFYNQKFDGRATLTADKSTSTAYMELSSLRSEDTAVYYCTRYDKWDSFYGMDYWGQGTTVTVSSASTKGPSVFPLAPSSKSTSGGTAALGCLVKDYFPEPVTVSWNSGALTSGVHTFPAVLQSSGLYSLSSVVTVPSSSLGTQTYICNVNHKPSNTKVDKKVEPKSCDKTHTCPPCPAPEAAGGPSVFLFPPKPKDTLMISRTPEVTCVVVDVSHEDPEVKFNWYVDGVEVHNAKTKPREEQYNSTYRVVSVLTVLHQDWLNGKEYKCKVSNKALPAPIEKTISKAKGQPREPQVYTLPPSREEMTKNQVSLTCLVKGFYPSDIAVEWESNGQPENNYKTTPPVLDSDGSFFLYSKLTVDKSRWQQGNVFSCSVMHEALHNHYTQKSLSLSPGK
light: DIQMTQSPSSLSASVGDRVTITCKASQLVSSAVAWYQQKPGKAPKLLIYWASTLHTGVPSRFSGSGSGTDFTLTISSLQPEDFATYYCQQHYRTPFTFGQGTKLEIKRGGSGGGGSGDIQMTQSPSSLSASVGDRVTITCSASSGSISYIDWFQQKPGKAPKRLIYATFELASGVPSRFSGSGSGTDFTLTISSLQPEDFATYYCHQLGSYPDTFGQGTKLEIKRTVAAPSVFIFPPSDEQLKSGTASVVCLLNNFYPREAKVQWKVDNALQSGNSQESVTEQDSKDSTYSLSSTLTLSKADYEKHKVYACEVTHQGLSSPVTKSFNRGEC
notes: DVD-Ig; IgG1 234,235 mut, kappa; GS10 linkers; also called hMAK195-24-GS10-M10 DVD
B4: hMAK199-10-h10F7-M10.8 DVD-Ig (bispecific antibody, human IgG1, kappa, L234A L235A)
heavy: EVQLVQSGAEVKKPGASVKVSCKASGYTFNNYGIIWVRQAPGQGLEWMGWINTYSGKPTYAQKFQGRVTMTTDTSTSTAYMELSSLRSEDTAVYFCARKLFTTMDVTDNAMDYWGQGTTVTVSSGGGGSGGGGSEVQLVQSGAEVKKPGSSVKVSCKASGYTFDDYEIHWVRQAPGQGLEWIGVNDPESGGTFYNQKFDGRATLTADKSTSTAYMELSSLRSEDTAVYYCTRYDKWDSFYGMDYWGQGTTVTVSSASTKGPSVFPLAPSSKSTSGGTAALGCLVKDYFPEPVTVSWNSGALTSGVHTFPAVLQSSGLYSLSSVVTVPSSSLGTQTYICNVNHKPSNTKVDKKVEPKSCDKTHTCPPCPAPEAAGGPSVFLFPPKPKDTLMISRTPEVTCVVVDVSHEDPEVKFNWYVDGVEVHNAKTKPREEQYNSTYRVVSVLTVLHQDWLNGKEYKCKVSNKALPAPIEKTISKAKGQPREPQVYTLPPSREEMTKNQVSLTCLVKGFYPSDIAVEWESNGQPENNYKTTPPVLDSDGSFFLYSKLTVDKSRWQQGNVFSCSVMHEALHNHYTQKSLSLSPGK
light: DIQMTQSPSSLSASVGDRVTITCRASQDISNFLNWYQQKPGKAPKLLIYYTSRLQSGVPSRFSGSGSGTDYTLTISSLQPEDFATYFCQQGNTQPPTFGQGTKLEIKRGGSGGGGSGDIQMTQSPSSLSASVGDRVTITCSASSGSISYIDWFQQKPGKAPKRLIYATFELASGVPSRFSGSGSGTDFTLTISSLQPEDFATYYCHQLGSYPDTFGQGTKLEIKRTVAAPSVFIFPPSDEQLKSGTASVVCLLNNFYPREAKVQWKVDNALQSGNSQESVTEQDSKDSTYSLSSTLTLSKADYEKHKVYACEVTHQGLSSPVTKSFNRGEC
notes: DVD-Ig; IgG1 234,235 mut, kappa; GS10 linkers; also called HMAK199-10-GS10-H10F7-M10 DVD
B5: hMAK199-6-h10F7-M10.8 DVD-Ig (bispecific antibody, human IgG1, kappa, L234A L235A)
heavy: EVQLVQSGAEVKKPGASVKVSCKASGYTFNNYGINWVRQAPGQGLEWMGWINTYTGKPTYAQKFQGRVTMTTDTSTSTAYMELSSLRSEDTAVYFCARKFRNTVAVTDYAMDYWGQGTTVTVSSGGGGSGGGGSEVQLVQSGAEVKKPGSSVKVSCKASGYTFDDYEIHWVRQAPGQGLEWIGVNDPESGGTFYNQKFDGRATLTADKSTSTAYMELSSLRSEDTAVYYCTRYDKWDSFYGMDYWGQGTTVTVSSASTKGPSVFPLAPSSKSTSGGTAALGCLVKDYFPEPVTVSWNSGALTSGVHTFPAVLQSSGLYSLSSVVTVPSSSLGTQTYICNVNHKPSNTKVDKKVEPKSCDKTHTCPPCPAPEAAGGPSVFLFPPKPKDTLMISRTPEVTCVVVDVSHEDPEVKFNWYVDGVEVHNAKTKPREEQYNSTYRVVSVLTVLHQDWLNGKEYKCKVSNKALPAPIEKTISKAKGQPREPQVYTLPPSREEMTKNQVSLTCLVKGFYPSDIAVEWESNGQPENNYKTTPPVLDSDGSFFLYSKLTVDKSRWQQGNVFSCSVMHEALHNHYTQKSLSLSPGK
light: B4 light with S30Y, N31D, F32V, T51A, Y71F, F87Y, N92I, Q94L
notes: DVD-Ig; IgG1 234,235 mut, kappa; GS10 linkers; also called HMAK199-6-GS10-H10F7-M10 DVD
B6: hMAK199-10-h10F7-M11.8 DVD-Ig (bispecific antibody, human IgG1, kappa, L234A L235A)
heavy: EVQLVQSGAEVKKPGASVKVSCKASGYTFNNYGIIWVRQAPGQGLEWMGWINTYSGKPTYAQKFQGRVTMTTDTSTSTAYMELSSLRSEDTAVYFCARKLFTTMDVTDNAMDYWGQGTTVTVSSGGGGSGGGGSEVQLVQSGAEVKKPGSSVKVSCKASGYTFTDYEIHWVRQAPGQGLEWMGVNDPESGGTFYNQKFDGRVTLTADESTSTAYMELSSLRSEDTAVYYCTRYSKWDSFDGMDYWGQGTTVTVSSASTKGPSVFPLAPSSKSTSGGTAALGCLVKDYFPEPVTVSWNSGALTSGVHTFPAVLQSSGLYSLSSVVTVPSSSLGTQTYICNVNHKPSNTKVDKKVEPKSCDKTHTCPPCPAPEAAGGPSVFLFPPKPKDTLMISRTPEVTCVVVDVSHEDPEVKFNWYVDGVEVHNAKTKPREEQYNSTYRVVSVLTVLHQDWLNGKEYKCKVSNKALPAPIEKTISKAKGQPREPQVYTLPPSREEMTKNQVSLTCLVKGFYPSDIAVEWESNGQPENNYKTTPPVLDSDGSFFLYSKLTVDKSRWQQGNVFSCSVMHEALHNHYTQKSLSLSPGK
light: B4 light with S141R, S146I, E170D, F188Y, H206R, L208V, D213E
notes: DVD-Ig; IgG1 234,235 mut, kappa; GS10 linkers; also called HMAK199-10-GS10-H10F7-M11 DVD
B7: hMAK199-4-h10F7-M11.8 DVD-Ig (bispecific antibody, human IgG1, kappa, L234A L235A)
heavy: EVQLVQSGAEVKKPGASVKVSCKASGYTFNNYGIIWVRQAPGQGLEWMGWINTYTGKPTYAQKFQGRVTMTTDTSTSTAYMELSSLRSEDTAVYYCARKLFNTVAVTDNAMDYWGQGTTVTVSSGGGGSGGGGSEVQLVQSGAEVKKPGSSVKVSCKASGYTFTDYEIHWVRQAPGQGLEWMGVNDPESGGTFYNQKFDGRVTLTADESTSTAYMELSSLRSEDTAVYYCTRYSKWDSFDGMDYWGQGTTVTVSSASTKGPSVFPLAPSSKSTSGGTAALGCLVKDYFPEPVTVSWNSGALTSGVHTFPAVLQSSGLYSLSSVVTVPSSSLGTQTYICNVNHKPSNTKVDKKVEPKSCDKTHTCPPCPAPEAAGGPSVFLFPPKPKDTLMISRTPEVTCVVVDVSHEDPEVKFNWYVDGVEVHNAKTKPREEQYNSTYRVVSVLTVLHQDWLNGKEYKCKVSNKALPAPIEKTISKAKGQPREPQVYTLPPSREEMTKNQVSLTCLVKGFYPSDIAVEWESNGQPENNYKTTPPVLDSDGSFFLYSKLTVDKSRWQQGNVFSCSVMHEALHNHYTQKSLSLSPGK
light: B4 light with S30E, F32Y, Y71F, S141R, S146I, E170D, F188Y, H206R, L208V, D213E
notes: DVD-Ig; IgG1 234,235 mut, kappa; GS10 linkers; also called HMAK199-4-GS10-H10F7-M11 DVD
B8: h10F7-M11-hMAk199-4.4 DVD-Ig wt (bispecific antibody, human IgG1, kappa)
heavy: not shown
light: DIQMTQSPSSLSASVGDRVTITCRASSGIISYIDWFQQKPGKAPKRLIYATFDLASGVPSRFSGSGSGTDYTLTISSLQPEDFATYYCRQVGSYPETFGQGTKLEIKRTVAAPDIQMTQSPSSLSASVGDRVTITCRASQDIENYLNWYQQKPGKAPKLLIYYTSRLQSGVPSRFSGSGSGTDFTLTISSLQPEDFATYFCQQGNTQPPTFGQGTKLEIKRTVAAPSVFIFPPSDEQLKSGTASVVCLLNNFYPREAKVQWKVDNALQSGNSQESVTEQDSKDSTYSLSSTLTLSKADYEKHKVYACEVTHQGLSSPVTKSFNRGEC
notes: DVD-Ig, IL-17 outer / TNF inner domain; wild-type IgG1, kappa; short linkers
B9: hMAK195-24-h10F7-M11.4 DVD-Ig wt (bispecific antibody, human IgG1, kappa)
heavy: not shown
light: DIQMTQSPSSLSASVGDRVTITCKASQLVSSAVAWYQQKPGKAPKLLIYWASTLHTGVPSRFSGSGSGTDFTLTISSLQPEDFATYYCQQHYRTPFTFGQGTKLEIKRTVAAPDIQMTQSPSSLSASVGDRVTITCRASSGIISYIDWFQQKPGKAPKRLIYATFDLASGVPSRFSGSGSGTDYTLTISSLQPEDFATYYCRQVGSYPETFGQGTKLEIKRTVAAPSVFIFPPSDEQLKSGTASVVCLLNNFYPREAKVQWKVDNALQSGNSQESVTEQDSKDSTYSLSSTLTLSKADYEKHKVYACEVTHQGLSSPVTKSFNRGEC
notes: DVD-Ig; wild-type IgG1 (CG1 Z NONA), kappa; short (SS) linkers ASTKGP / TVAAP; also called HMAK195-24-SS-H10F7-M11 DVD
B10: h10F7-M11-hMAK199-4.8 DVD-Ig wt (bispecific antibody, human IgG1, kappa)
heavy: not shown
light: DIQMTQSPSSLSASVGDRVTITCRASSGIISYIDWFQQKPGKAPKRLIYATFDLASGVPSRFSGSGSGTDYTLTISSLQPEDFATYYCRQVGSYPETFGQGTKLEIKRGGSGGGGSGDIQMTQSPSSLSASVGDRVTITCRASQDIENYLNWYQQKPGKAPKLLIYYTSRLQSGVPSRFSGSGSGTDFTLTISSLQPEDFATYFCQQGNTQPPTFGQGTKLEIKRTVAAPSVFIFPPSDEQLKSGTASVVCLLNNFYPREAKVQWKVDNALQSGNSQESVTEQDSKDSTYSLSSTLTLSKADYEKHKVYACEVTHQGLSSPVTKSFNRGEC
notes: DVD-Ig, IL-17 outer / TNF inner domain; wild-type IgG1, kappa; GS10 linkers

Experiments:
[1] = molecular target: T1, Human IL-17A (human, UniProt Q16552 20-155, limits assumed); assay: ELISA, captured DVD-Ig, biotin-human IL-17 titrated
T1 construct: Biotinylated in the ELISAs; purified recombinant protein in SPR; also called hIL17A; hIL-17
T1 sequence (Q16552 20-155 limits assumed): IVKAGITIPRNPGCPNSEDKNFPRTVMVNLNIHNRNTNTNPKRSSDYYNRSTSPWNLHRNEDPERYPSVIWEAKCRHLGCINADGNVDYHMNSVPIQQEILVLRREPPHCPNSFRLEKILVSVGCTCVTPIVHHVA
Description: The following protocol is used to characterize the binding of TNF/IL-17 DVD-Ig proteins to human TNF and IL-17 by enzyme-linked immunosorbent assay (ELISA). An ELISA plate was coated with 50 μl per well of goat anti mouse IgG-Fc at 2 μg/ml, overnight at 4° C. The plate was washed 3 times with PBS/Tween. 50 μl Mab diluted to 1 μg/ml in PBS/0.1% BSA was added to appropriate wells and incubated for 1 hour at room temperature (RT). The plate was washed 3 times with PBS/Tween. 50 μl of serial diluted biotin-human TNF or IL-17 was added to appropriate wells and incubated for 1 hour at RT. The plate was washed 3 times with PBS/Tween. 50 μl of streptavidin-HRP diluted 1:10,000 in PBS/0.1% BSA was added to appropriate wells and incubated for 1 hour at RT. The plate was washed 3 times with PBS/Tween. 50 μl of TMB was added to appropriate wells and the reaction allowed to proceed for 1 minute. The reaction was stopped with 50 μl/well 2N H₂SO₄ and the absorbance read at 450 nm.

[2] = molecular target: T2, Rhesus TNFa (rhesus, UniProt P48094 77-233); assay: SPR (Biacore T200), DVD-Ig captured by anti-human IgG Fc, antigen in solution
T2 construct: also called Rhesus TNF-alpha
T2 sequence (P48094 77-233 limits assumed): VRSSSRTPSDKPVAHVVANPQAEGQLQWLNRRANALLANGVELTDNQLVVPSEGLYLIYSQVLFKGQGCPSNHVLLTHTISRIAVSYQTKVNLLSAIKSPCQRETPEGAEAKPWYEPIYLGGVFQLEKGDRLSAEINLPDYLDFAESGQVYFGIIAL
Description: (§1) The binding of antibodies to purified recombinant IL-17 and TNFα proteins were determined by surface plasmon resonance-based measurements with a Biacore® T200 instrument (GE Healthcare) using running HBS-EP (10 mM HEPES [pH 7.4], 150 mM NaCl, 3 mM EDTA, and 0.005% surfactant P20) containing 0.1 mg/ml BSA at 25° C. All chemicals were obtained from Biacore® AB (GE Healthcare) or otherwise from a different source as described in the text. Approximately 5000 RU of goat anti-human IgG (Fcγ) fragment specific polyclonal antibody (Pierce Biotechnology Inc, Rockford, Ill.) diluted in 10 mM sodium acetate (pH 4.5) was directly immobilized across a CM5 research grade biosensor chip using a standard amine coupling kit according to manufacturer's instructions and procedures at 25 ug/ml. Unreacted moieties on the biosensor surface were blocked with ethanolamine. Modified carboxymethyl dextran surface in flowcell 2, 3 and 4 were used as a reaction surface. Modified carboxymethyl dextran with goat IgG in flow cell 1 was used as the reference surface. For kinetic analysis, rate equations derived from the 1:1 Langmuir binding model were fitted simultaneously to association and dissociation phases of all six injections (using global fit analysis with local float for Rmax) with the use of Biacore T200 Evaluation software v.1.0. Purified antibodies were diluted in HEPES-buffered saline for capture across goat anti-human IgG specific reaction surfaces. Antibodies to be captured as ligand (1-5 μg/ml) were injected over reaction matrices at a flow rate of 50 μl/minute. Association phase was monitored for 5 minutes, while dissociation phase was monitored for 10-60 minutes to accommodate for slower off-rates. The association and dissociation rate constants, ka (unit M-1 s-1) and kd (unit s-1) were determined under a continuous flow rate of 50 μl/minute. Rate constants were derived by making kinetic binding measurements at six different antigen concentrations ranging from 0.78 nM to 100 nM, depending on the species of IL-17 or TNFα tested. The association ka, dissociation rate kd and equilibrium dissociation constant KD were calculated with the use of the same Biacore T200 Evaluation software v.1.0.

[3] = molecular target: T3, Cynomolgus monkey IL-17A (cynomolgus monkey, UniProt A0A2K5TTB0 24-155); assay: as above
T3 construct: also called Cyno IL-17AA; Cyno IL17AA
T3 sequence (A0A2K5TTB0 entry or part of it): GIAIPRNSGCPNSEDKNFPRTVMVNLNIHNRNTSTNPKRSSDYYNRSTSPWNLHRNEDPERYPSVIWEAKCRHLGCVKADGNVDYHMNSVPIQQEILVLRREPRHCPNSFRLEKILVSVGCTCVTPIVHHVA
Description: as §1

[4] = molecular target: T1, Human IL-17A; assay: as above
Description: as §1

Row | Binder | EC50 [1] [nM] | other results
1 | B1 | 0.242 | 
2 | B2 | 0.2 | 
3 | B3 | 0.1 | 
4 | B4 | 0.079 | 
5 | B5 | 0.163 | 
6 | B6 | 0.133 | 
7 | B7 | 0.13 | Kd [2]: 0.00772 nM; koff [2]: 2.25e-05 s⁻¹; kon [2]: 2.91e+06 M⁻¹ s⁻¹; Kd [3]: 0.00861 nM; koff [3]: 2.57e-06 s⁻¹; kon [3]: 299000 M⁻¹ s⁻¹; Kd [4]: 0.0271 nM; koff [4]: 8.76e-06 s⁻¹; kon [4]: 323000 M⁻¹ s⁻¹
8 | B8 | 0.04 | 
9 | B9 | > 0.5 | 
10 | B10 | 0.05 | 
